For the test, the target named is hERG channel with a deleted PAS domain fused to Citrine (S620T) (human) (UniProt Q12809). Put plainly: FRET or BRET.

In the case of “hERG PAS domain fused to CFP (from UniProt Q12809 1-135) (domain or fragment)”, the Ratio A (F436/F500) amounted to 0.37 and the Ratio A-Ratio A0 (proportional to FRET efficiency) was determined as 0.21.
